Data: US10143747B2, “Breast cancer therapeutics” (IMBA—INSTITUT FÜR MOLEKULARE BIOTECHNOLOGIE GMBH, priority 2010, dated 2018)

B1: RANKL: recombinant RANKL protein, ligand of RANK, used as stimulus (1 μg/ml or 1 μg i.p.) (protein, UniProt O35235 139-316, looked up)
Tumor necrosis factor ligand …: FSGAPAMMEGSWLDVAQRGKPEAQPFAHLTINAASIPSGSHKVTLSSWYHDRGWAKISNMTLSNGKLRVNQDGFYYLYANICFRHHETSGSVPTDYLQLMVYVVKTSIKIPSSHNLMKGGSTKNWSGNSEFHFYSINVGGFFKLRAGEEISIQVSNPSLLDPDQDATYFGAFKVQDID

How the values were obtained:
[1] = system: human breast cancer cells as well as cultured MECs; experiment: RANKL mRNA expression in human breast cancer cells and cultured MECs after MPA stimulation in vitro; format: cell-based; details: MPA 0.1 μM
Description: a, Analysis of RANKL mRNA expression in human breast cancer cells as well as cultured MECs after MPA stimulation (0.1 μM). Expression was determined by qRT-PCR in unstimulated cells or cells stimulated with MPA for the indicated time points. […] Data were obtained by qRT-PCR and are shown as fold change compared to MCF10A (b) and purified primary MECs (c) (+/−sem) (n=3).
MPA (medroxyprogesterone acetate, a representive progestin) pellets were implanted into female mice and RANKL expression was assayed. […] Since MPA can induce transcription of prolactin and the prolactin receptor in breast cancer cells and prolactin can directly induce RANKL via Jak2/Stat5 signaling, it was tested whether MPA induces RANKL in the mammary gland of prolactin receptor knock-out mice.

[2] = system: primary mouse mammary epithelial cells; experiment: DNA damage responses (cell cycle arrest, apoptosis) in primary mouse mammary epithelial cells; format: cell-based; details: RANKL 1 μg/ml
Description: (§1) a, Western Blot analysis for γH2AX, phosphorylated (P) Chk1, total Chk1, p53 and β-actin in isolated primary mouse mammary gland epithelial cells in response to γ-irradiation (2 Gray) in the presence (1 μg/ml) or absence of RANKL stimulation. b,c, FACS analysis of propidium iodide (PI) stained b, mammary epithelial cells and c, SKBR3 human breast cancer cells after γ-irradiation (2 Gray) in the absence or presence (1 μg/ml) of RANKL. Data are representative of at least 3 experiments. Apoptotic cells with a DNA content <2n appear in the sub-G1 region. Percent of cells in sub-G1 (M1), G1-phase (M2), S/G2/M-phase (M3) as well as polyploid cells with a DNA content >4n are given for the indicated time points.
(§2) a,b, FACS analysis of a, mammary epithelial cells and b, SKBR3 human breast cancer cells incubated with the genotoxic agent doxorubicin (Dox, 1 μM) in the presence (1 μg/ml) or absence of RANKL. Data are representative of at least 3 experiments. Percent of cells in sub-G1 (M1), G1-phase (M2), S/G2/M-phase (M3) as well as polyploid cells with a DNA content >4n are given for 24 and 36 hours after doxorubicin treatment. c, mRNA expression of pro-apoptotic genes Bim, Puma, and Noxa 6 hours after γ-irradiation (2 Gray) in the presence (1 μg/ml) or absence of RANKL stimulation. Data are shown as fold change compared to control (+/−sem). n=3). *P<0.05; **P<0.005 (Student's t-test).
(§3) For measurement of cell cycle arrest and apoptosis primary mouse mammary epithelial cells and SKBR3 human breast cancer cells were seeded at a cell-density of 100000 cells/well in a 6-well plate and allowed to grow for 24 hours. Cells where then treated with doxorubicin (1 μM) or γ-irradiation (2 Gray) in the absence or presence of recombinant RANKL (1 μg/ml). Cell cycle arrest and numbers of dead cells were determined using propidium iodine staining. To determine in vivo mammary gland epithelial cell death, control and RANK^Δmam littermate females were γ-irradiated with a total dose of 5 Gray (Gy). Six hours later, mammary glands were isolated and immunostained for active Caspase 3 (Cell Signaling) indicative of apoptosis.

[3] = system: SKBR3 breast cancer cells; experiment: Growth curve of SKBR3 cells, live cell counting; format: cell-based, human; details: RANKL 1 μg/ml, 3 days
Description: a, Western blotting for phosphorylated (P) p65 NFκB, total p65 NFκB, phosphorylated (P) IκBα, total IκBα, phosphorylated (P) ERK1/2, total ERK1/2, phosphorylated (P) p38-MAPK, and p38-MAPK in human SKBR3 breast cancer cells in response to RANKL stimulation (1 μg/ml). Data are representative of 3 experiments. b, Growth curve of SKBR3 breast cancer cells cultured in normal growth medium (control, DMEM supplemented with 10% FCS) or in the presence of RANKL (1 μg/ml). Cell numbers were determined by counting live cells (trypan blue-exclusion) over 3 days. c, Onset of palpable mammary tumors in NFATc1^Δmam (n=10) and age matched littermate control (n=16) females treated with MPA pellets and DMBA. Data are shown as percentage of tumor free mice after the last DMBA challenge. No significant difference was found. d, Quantification of NFATc1 mRNA expression in purified mammary epithelial cells (MECs) and MPA-driven mammary tumors from NFATc1^Δmam and littermate control females. mRNA was determined by qRT-PCR. Data are shown as fold change compared to control (+/−sem). n=5 Per group. *P<0.05 (Student's t-test).

[4] = system: SKBR3 human breast cancer cells; experiment: DNA damage responses (cell cycle arrest, apoptosis) in SKBR3 cells; format: cell-based; details: RANKL 1 μg/ml
Description: as §1, §2, §3

Molecule | RANKL mRNA induction in SKBR3 cells [1] | γ-irradiation-induced upregulation of proapoptotic Bim, Puma and Noxa mRNA ([2]; 6 hours after γ-irradiation 2 Gray, cell type not stated) | early cell cycle arrest after DNA damage ([2]; doxorubicin 1 μM) | protection from cell death ([2]; doxorubicin 1 μM) | early cell cycle arrest after DNA damage ([2]; γ-irradiation 2 Gray) | induction of γH2AX and p53, activation of Chk1 (DNA damage response markers) ([2]; γ-irradiation 2 Gray) | protection from cell death ([2]; γ-irradiation 2 Gray) | proliferation of SKBR3 cells [3] | early cell cycle arrest after DNA damage ([4]; doxorubicin 1 μM) | protection from cell death ([4]; doxorubicin 1 μM) | early cell cycle arrest after DNA damage ([4]; γ-irradiation 2 Gray) | protection from cell death ([4]; γ-irradiation 2 Gray)
CC(=O)O[C@]1(C(C)=O)CC[C@H]2[C@@H]3C[C@H](C)C4=CC(=O)CC[C@]4(C)[C@H]3CC[C@@]21C [MPA, medroxyprogesterone acetate] | only slightly increased |  |  |  |  |  |  |  |  |  |  | 
B1 |  | did not occur in the presence of RANKL | did not alter the early cell cycle arrest | marked protection from cell death | did not alter the early cell cycle arrest | did not alter induction of γH2AX and p53 or activation of Chk1 | marked protection from cell death | induced NFκB, p38-MAPKs and ERK activation and proliferation | did not alter the early cell cycle arrest | marked protection from cell death | did not alter the early cell cycle arrest | marked protection from cell death
